Data taken from US20130272958A1 (NATIONAL RESEARCH COUNCIL OF CANADA, published 2013).
Blank lines part the entries; values can stand above or below the molecule they belong to.

Legend:
[1] = target: recombinant CEACAM6 N-terminal domain (expressed in E. coli) (Homo sapiens (Human)) (UniProt P40199); experiment: SPR (Biacore 3000), 9A6 immobilised, CEACAM6 recombinant protein injected at 0.1-200 nM
[2] = target: T1, CEACAM6 peptide HNLPQNRIGYSWYKG; experiment: peptide array membrane, anti-llama detection
T1 construct: Spot on a JPT peptide array (45 peptides, 15 residues long, 10 overlapping)
T1 peptide: HNLPQNRIGYSWYKG

[3] = target: T2, CEACAM6 peptide NRIGYSWYKGERVDG; experiment: peptide array membrane, anti-llama detection
T2 construct: Spot on a JPT peptide array (45 peptides, 15 residues long, 10 overlapping)
T2 peptide: NRIGYSWYKGERVDG

[4] = target: T3, recombinant CEACAM6 N-terminal domain (expressed in E. coli) (Homo sapiens (Human), UniProt P40199 35-142, limits assumed); experiment: SPR (Biacore 3000), CEACAM6 immobilised, 2A3 injected at 1-60 nM, 1:1 Langmuir fit
T3 construct: also called CEACAM6 N-domain; recombinant CEACAM6 protein (N-domain)
T3 sequence: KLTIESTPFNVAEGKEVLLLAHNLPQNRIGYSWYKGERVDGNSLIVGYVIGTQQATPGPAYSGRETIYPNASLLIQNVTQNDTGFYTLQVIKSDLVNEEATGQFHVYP
Description: Immobilizations were performed with an amine-coupling kit (GE Healthcare) and carried out at 50 μg/ml CEACAM6 in 10 mM Acetate, pH 4 (GE Healthcare) and 50 μg/ml of Ovalbumin in 10 mM Acetate, pH 4.5. 120 μL of the sdAb at concentration of 1 nM to 60 nM were injected over the surfaces at a flow rate of 40 μl/min. Analyses were carried out at room temperature in HBS-EP, 10 mM HEPES pH 7.4, 150 mM NaCl, 3 mM EDTA and 0.005% surfactant P20 (GE Healthcare). Regeneration was performed with running buffer (HBS-EP). Data were analyzed with BIAevaluation software 4.1.

[5] = target: T4, native CEACAM6 expressed by human tumor cells (BxPC3, LS174T, A549) (human, UniProt P40199 35-320); experiment: cell-based or functional assay
T4 sequence: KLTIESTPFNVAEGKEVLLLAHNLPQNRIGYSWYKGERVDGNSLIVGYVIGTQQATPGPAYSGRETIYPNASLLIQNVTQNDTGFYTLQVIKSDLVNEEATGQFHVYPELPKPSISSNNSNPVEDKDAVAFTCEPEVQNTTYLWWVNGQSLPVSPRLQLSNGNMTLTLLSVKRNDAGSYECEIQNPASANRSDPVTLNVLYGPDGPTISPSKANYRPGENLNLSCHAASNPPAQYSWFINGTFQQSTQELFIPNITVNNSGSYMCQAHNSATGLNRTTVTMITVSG

[6] = target: T3, recombinant CEACAM6 N-terminal domain …; experiment: SPR (Biacore 3000), 2A3-Fc immobilised, CEACAM6 recombinant protein injected at 0.1-200 nM
Description: One hundred twenty microliters of CEACAM6 recombinant protein at concentration of 0.1 nM to 200 nM was injected over the surfaces at a flow rate of 40 μl min-1. Analyses were carried out at room temperature in HBS-EP comprising 10 mM HEPES pH 7.4, 150 mM NaCl, 3 mM EDTA and 0.005% surfactant P20 (GE Healthcare). Regeneration was performed with HBS-EP used as running buffer. The data were analyzed by using BIAevaluation software 4.1.

Kd [1]: 8 nM
Molecule: anti-CEACAM6 mouse monoclonal antibody 9A6 (Santa Cruz Biotechnology)

binding result [2]: binds | binding result [3]: binds | Kd [4]: 4.7 nM | koff [4]: 0.0053 s⁻¹ | kon [4]: 1.1e+06 M⁻¹ s⁻¹ | BxPC3 cell proliferation (MTT assay), IC50 [5]: 6500 nM
B1: sdAb 2A3 (engineered, with c-myc and His tags) (VHH)
VHH: QVKLEESGGGLVQAGGSLRLSCRTSGRTNSVYTMGWFRQAPGKEREFVAQIMWGAGTNTHYADSVKGRFTISRDSAESTVYLQMNSLKPEDTAVYYCAANRGIPIAGRQYDYWGQGTQVTVSS
modifications: FITC-labelled in the staining and flow cytometry assays
notes: Llama VHH expressed in the E. coli periplasm and purified by IMAC; monomer by size exclusion; also called 2A3 sdAb; FITC-2A3

Kd [6]: 13 nM | BxPC3 cell proliferation (MTT assay), IC50 [5]: 8000 nM
B2: 2A3-Fc (2A3 sdAb fused to mouse Fc2b fragment) (Fc fusion)
chain: B1 VHH
modifications: FITC, Alexa Fluor 594 or 64Cu-DOTA label in some assays
notes: Expressed in 293-6E cells and purified on Protein G; about 80 kDa, bivalent; also called 2A3-mFc; 2A3mFc; not shown: mouse Fc2b fragment (Fc of mouse IgG2b) from vector pTT5
